# T1: nNOS construct comprising amino acids 163-245 (PIN-binding domain of nNOS), Gal4 BD fusion (rat)
# T1 chain: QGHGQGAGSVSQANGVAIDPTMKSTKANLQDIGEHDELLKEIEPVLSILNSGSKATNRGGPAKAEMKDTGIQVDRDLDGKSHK
# Tests used:
# [1] = target: T2, nNOS (Rattus norvegicus, UniProt P29476); assay: nNOS catalytic activity; assay type: biochemical; details: data not shown
# [2] = system: nNOS/PSD95 interaction; assay: Coimmunoprecipitation of myc-PSD95 with HA-nNOS in transfected HEK293 cells; assay type: cell-based; details: cotransfection of full-length CAPON expression plasmid
# Excerpt: FIG. 6. CAPON expression prevents the interaction of PSD95 and nNOS. HEK293 cells were transfected with various combinations of expression plasmids for HA-tagged nNOS (HA-NOS), myc-tagged PSD95, or CAPON. Following transfection, the lysates were immunoprecipitated with an anti-HA antibody and bound proteins were detected with the appropriate antibodies. Following cotransfection of HA-NOS and myc-PSD95, myc-PSD95 is detected in anti-HA immunoprecipitates. […] In the absence of HA-nNOS transfection, neither myc-PSD95 or CAPON is immunoprecipitated by anti-HA antibodies.
# We wanted to determine if CAPON and PSD95 compete for binding to nNOS in intact cells. Accordingly, we transfected HEK-293 cells with various mixtures of expression plasmids containing cDNAs of hemagglutinin antigen (HA)-tagged nNOS, myc-tagged PSD95 and/or full-length CAPON. Following immunoprecipitation with antibodies to HA, we examined which proteins coprecipitated. In cells expressing HA-nNOS and myc-PSD95, antibodies to HA coprecipitate myc-PSD95 (FIG. 6). When various amounts of CAPON cDNA containing expression plasmids are also transfected, HA-immunoprecipitatescontain CAPON but substantially less PSD95.
# [3] = system: nNOS/PSD95 interaction; assay: Competition of His6-fusion proteins for nNOS binding to immobilized GST-PSD95; design: competition for / block of nNOS-PSD95 interaction: dose or concentration left out as unconfirmed; details: for block of nNOS/PSD95 interaction in vitro: no concentration stated
# Protocol: (§1) The C-terminal 100 amino acids were fused to a His6 tag and added to HEK293 lysates transfected with nNOS expression plasmids at the indicated fusion protein concentration. This mixture was added to GST-PSD95 (amino acids 20-364) or GST-PSD93 (116-421), the regions of these proteins previously shown to interact with nNOS (Brenrman et al., 1996).
# (FIG. 5B) Quantification of CAPON inhibition of the nNOS/PSD95 interaction. HEK293 cells were transfected with nNOS expression plasmids and then metabolically labeled with [^35 S] methionine. Radiolabeled nNOS was purified and mixed with His6 -CAPON as in (A), above. Bound nNOS was resolved by electrophoresis and counts were determined on a Phospholmager.
# Transfections were performed with 10 μg of each plasmid using the calcium phosphate method. Following transfection, cells were sonicated in buffer A [50 mM Tris-HCl (pH 7.7), 100 mM NaCl, 2 mM EDTA, and 1% Triton X-100] and cleared by centrifugation. This cellular lysate was incubated with GST-fusion protein immobilized on glutathione-agarose for one hour at 4° C. and washed extensively in HNTG buffer [20 mM Hepes (pH 7.4), 500 mM NaCl, 10% glycerol, and 0.1% Triton X-100] five times, for ten minutes per wash at room temperature. A GST-CAPON fusion protein consisting of amino acids 379-503 was used for binding assays because it was more soluble when expressed in bacteria than larger CAPON fusion proteins.
# For quantitative binding experiments, transfected cells were metabolically labeled overnight with […] [^35 S] methionine and nNOS was purified by NADPH elution of 2', 5' ADP ribose as described previously (Bredt and Snyder, 1990).
# Since the nNOS PDZ domain is capable of both PDZ-PDZ interactions and PDZ-C-terminal peptide interactions we wondered whether CAPON and PSD95 can bind simultaneously to nNOS or whether their interactions with nNOS are mutually exclusive. To answer this question we incubated lysates of HEK-293 cells containing nNOS with various concentrations of a His6 -CAPON fusion protein, comprising the last 125 amino acids of CAPON, and then added these lysates to GST-PSD95 immobilized on glutathione agarose resin (FIG. 5A). After extensive washing of the resin, we assayed for nNOS bound to PSD95 by Western blot. […] Half maximal reduction of binding is evident between 5 and 50 nM His6 -CAPON (FIG. 5B). […] As controls, we examined the effects of 5 μM His6 -PIN or […] His6 -FK506 binding protein-12 kD (FKBP). […] These effects of CAPON likely reflect its binding to nNOS rather than to the PDZ domains of either PSD95 or PSD93 because CAPON fails to interact with either PSD93 or PSD95 using (i) a two-hybrid assay (see FIG. 1A) and (ii) in vitro experiments utilizing immobilized GST-PSD95 and purified recombinant CAPON (data not shown).
# [4] = target: T2, nNOS; assay: CAPON C-terminal peptides as competitors for nNOS binding; design: expressed in transfected cells; host or cells: HEK293
# [5] = target: nNOS expressed in transfected HEK293 cells (lysate; also metabolically labelled and purified); assay: competition: nNOS (HEK-293) binding to immobilized GST-PSD95 in the presence of His6-CAPON
# [6] = target: T1, nNOS construct comprising amino acids …; assay: yeast two-hybrid with truncations of nNOS
# [7] = system: nNOS/PSD93 interaction; assay: Competition for nNOS binding to immobilized GST-PSD93
# Protocol: as §1
# Since the nNOS PDZ domain is capable of both PDZ-PDZ interactions and PDZ-C-terminal peptide interactions we wondered whether CAPON and PSD95 can bind simultaneously to nNOS or whether their interactions with nNOS are mutually exclusive. To answer this question we incubated lysates of HEK-293 cells containing nNOS with various concentrations of a His6 -CAPON fusion protein, comprising the last 125 amino acids of CAPON, and then added these lysates to GST-PSD95 immobilized on glutathione agarose resin (FIG. 5A). After extensive washing of the resin, we assayed for nNOS bound to PSD95 by Western blot. […] Half maximal reduction of binding is evident between 5 and 50 nM His6 -CAPON (FIG. 5B). […] As controls, we examined the effects of 5 μM His6 -PIN or […] His6 -FK506 binding protein-12 kD (FKBP). […]
# [8] = system: nNOS PDZ domain; assay: Binding of mutagenized His6-CAPON fusion proteins to immobilized GST-NOS (1-100); details: His6-fusion of last 100 amino acids of CAPON, last four amino acids given
# Protocol: His6 -fusion proteins of the last 100 amino acids of CAPON were generated and incubated with GST-NOS (1-100) immobilized on glutathione agarose.
# Recently Cantley and associates (Songyang et al., 1997) identified consensus sequences for binding to several PDZ domains. Binding of PDZ ligands involves the C-terminus of proteins, with determinants of specificity lying within the eight or fewer C-terminal amino acids. A consistent requirement among all the PDZ domain ligands is a hydrophobic residue, such as valine or leucine, as the final amino acid.
# [9] = target: nNOS (purified nNOS standard; preparation and species not stated); assay: peptide competition; format not described
molecule,measurement,setting,value
"CAPON: Carboxyl-terminal PDZ ligand of nNOS, 503 amino acid rat cytoplasmic protein",direct inhibition of nNOS catalytic activity,[1],does not inhibit
same,amount of myc-PSD95 in anti-HA precipitates,[2],substantially reduces
"His6 -FKBP: His6-tagged FK506 binding protein-12 kD, control protein [reference compound]",competition for / block of nNOS-PSD95 interaction,[3],Neither of these proteins compete
same,block of nNOS/PSD95 interaction in vitro,[3],do not disrupt
"peptides comprising the C-terminal nine residues of CAPON: short, presumably unfolded, peptides comprising the C-terminal nine residues of CAPON (DSLDDEIAV)",binding to nNOS,[4],bind nNOS weakly
His6-CAPON fusion protein comprising the last 125 amino acids of CAPON,IC50,[5],0.005 to 0.05 µM
"16-residue peptides: 16-residue peptides of the CAPON C-terminus (LQRQELGDSLDDEIAV; UniProt O54960 488-503, looked up, fragment)",IC50,[4]; read-out: IC50 as competitor,10 µM
pAD-CAPON1 (Gal4 activation domain fused to the last 125 amino acids of CAPON) (other) SGALPVLCESTTPKPEDLHSPLLGAGLADFAHPVGSPLGRRDCLVKLECFRFLPAEDNQPMAQGEPLLGGLELIKFRESGIASEYESNTDESEERDSWSQEELPRLLNVLQRQELGDSLDDEIAV,binding result,[6],no binding
His6 -CAPON: His6-tagged fusion protein of the C-terminal 100 or 125 amino acids of CAPON (protein) SGALPVLCESTTPKPEDLHSPLLGAGLADFAHPVGSPLGRRDCLVKLECFRFLPAEDNQPMAQGEPLLGGLELIKFRESGIASEYESNTDESEERDSWSQEELPRLLNVLQRQELGDSLDDEIAV,reduction of nNOS binding to GST-PSD95,[3]; 5 nM fusion protein,substantial reduction
same,block of nNOS/PSD95 interaction in vitro,[3],specifically block
same,effective concentration range as competitor,[3]; see FIG. 5,active in the nanomolar range
same,competition for nNOS binding to immobilized GST-PSD93,[7],effective competitor
same,binding to GST-NOS (1-100),[8],binds
LQRQELGDSLDDEIAV [16-residue peptides of CAPON],IC50,[9],10000 µM
"EIAA: His6-CAPON (last 100 amino acids), terminal valine mutated to alanine (protein) GLADFAHPVGSPLGRRDCLVKLECFRFLPAEDNQPMAQGEPLLGGLELIKFRESGIASEYESNTDESEERDSWSQEELPRLLNVLQRQELGDSLDDEIAA",binding to GST-NOS (1-100),[8],prevents binding
"ESAV: His6-CAPON (last 100 amino acids), n-2 isoleucine mutated to serine (protein) GLADFAHPVGSPLGRRDCLVKLECFRFLPAEDNQPMAQGEPLLGGLELIKFRESGIASEYESNTDESEERDSWSQEELPRLLNVLQRQELGDSLDDESAV",binding to GST-NOS (1-100),[8],tolerated
"EAAV: His6-CAPON (last 100 amino acids), n-2 isoleucine mutated to alanine (protein) GLADFAHPVGSPLGRRDCLVKLECFRFLPAEDNQPMAQGEPLLGGLELIKFRESGIASEYESNTDESEERDSWSQEELPRLLNVLQRQELGDSLDDEAAV",binding to GST-NOS (1-100),[8],tolerated
DC20: His6-CAPON fusion protein with the C-terminal 20 amino acids deleted (protein) SGALPVLCESTTPKPEDLHSPLLGAGLADFAHPVGSPLGRRDCLVKLECFRFLPAEDNQPMAQGEPLLGGLELIKFRESGIASEYESNTDESEERDSWSQEELPR,competition for / block of nNOS-PSD95 interaction,[3],fails to block the interaction
same,block of nNOS/PSD95 interaction in vitro,[3],abolishes its ability to serve as a competitor

# Reference: US6103872A, “CAPON: a protein associated with neuronal nitric oxide synthase” (The Johns Hopkins University, priority 1998, dated 2000)
